According to patent US20160046728A1 (HENOGEN S A, published 2016):

Tests used:
plasma kallikrein = plasma kallikrein (UniProt P03952 20-638); assay: SPR kinetics, Ir-CPI immobilized (about 200 RU), analyte at 6 concentrations from 5 nM to 300 nM
Method: Interaction kinetics were determined, for each analyte, with 6 different concentrations (from 5 nM to 300 nM). Binding data were analyzed using BIA evaluation software to determine the kinetic constants.
The ability of Ir-CPI to bind a (co)factor of coagulation or fibrinolysis was evaluated by surface plasmon resonance. […] Moreover, the kinetics of interaction between Ir-CPI and the four target factors (XIIa, XIa, plasmin and kallikrein) were measured after a new immobilization of Ir-CPI. […] Interaction kinetics were determined for each analyte, at 6 different concentrations (from 5 nM to 300 nM). The kinetic data obtained were individually processed with BIA evaluation software in order to determine the kinetics constants. […] FIG. 9 represents sensorgrams for interactions between coagulation factors and immobilized Ir-CPI measured by surface plasmon resonance. Ir-CPI was immobilized onto the surface of a sensor chip CM5 at level of 1500 resonance units (RUs). Contact factors (100 nM final concentration) were injected at a flow rate of 70 μl/min in HBS buffer, and association was monitored. After return to buffer flow, dissociation was monitored during 84 s. The sensor chip surface was regenerated by a pulse injection of 25 mM NaOH after each experiment.

factor X = target: T1, factor X (UniProt P00742 41-488); assay: SPR (BIAcore 3000), Ir-CPI immobilized on CM5 chip, factor injected as analyte
T1 construct: also called fX
Method: (§1) The interaction between Ir-CPI and coagulation or fibrinolytic factors was monitored using a BIAcore 3000 instrument (BIAcore AB, Sweden). Ir-CPI (15 μM) was immobilized on the surface of a CM5 sensor chip in 10 mM acetate buffer, pH 5.0, by the amine coupling procedure according to the manufacturer's instructions. 1500 resonance units (RU) of immobilized Ir-CPI were used for the assay. To subtract the non-specific component from the apparent binding response, a blank flow cell was prepared using the same immobilizing procedure without Ir-CPI. Binding analyses were carried out using HBS buffer (HEPES 10 mM, NaCl 150 mM, EDTA 3 mM; pH 7.4 with 0.005% surfactant P20) as running buffer at 25° C. 100 μl of each analyte (100 nM) was injected on the sensor chip at a flow rate of 70 μl/min Association was monitored during an 84 s injection of analyte. Dissociation was monitored for 3 min after return to the running buffer.
(§2) The ability of Ir-CPI to bind a (co)factor of coagulation or fibrinolysis was evaluated by surface plasmon resonance. […] Moreover, the kinetics of interaction between Ir-CPI and the four target factors (XIIa, XIa, plasmin and kallikrein) were measured after a new immobilization of Ir-CPI. […] Interaction kinetics were determined for each analyte, at 6 different concentrations (from 5 nM to 300 nM). The kinetic data obtained were individually processed with BIA evaluation software in order to determine the kinetics constants.

[1] = target: T2, high molecular weight kininogen (UniProt P01042 19-644); assay: as above
T2 construct: also called HMWK
T2 sequence (looked up): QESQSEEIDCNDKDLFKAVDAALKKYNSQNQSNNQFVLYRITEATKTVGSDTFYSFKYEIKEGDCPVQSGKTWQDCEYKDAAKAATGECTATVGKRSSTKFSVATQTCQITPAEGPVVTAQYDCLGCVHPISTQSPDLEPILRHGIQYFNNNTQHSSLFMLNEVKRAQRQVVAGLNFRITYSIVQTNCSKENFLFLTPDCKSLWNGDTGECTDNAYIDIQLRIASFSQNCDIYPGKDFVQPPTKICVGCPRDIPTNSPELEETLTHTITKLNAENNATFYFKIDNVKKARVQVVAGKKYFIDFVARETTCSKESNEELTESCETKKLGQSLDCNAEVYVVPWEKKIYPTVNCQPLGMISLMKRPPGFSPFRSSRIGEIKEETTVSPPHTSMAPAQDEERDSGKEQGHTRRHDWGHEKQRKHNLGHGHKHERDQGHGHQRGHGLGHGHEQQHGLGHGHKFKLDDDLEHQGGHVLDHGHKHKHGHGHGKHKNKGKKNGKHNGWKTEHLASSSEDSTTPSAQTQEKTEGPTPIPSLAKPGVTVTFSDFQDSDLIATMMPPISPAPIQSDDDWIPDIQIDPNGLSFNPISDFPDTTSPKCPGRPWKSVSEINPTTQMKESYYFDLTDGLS
Method: as §1, §2

thrombin = target: T3, thrombin (UniProt P00734 328-622); assay: as above
T3 construct: also called factor IIa; IIa
Method: as §1, §2

plasminogen = plasminogen (UniProt P00747 20-810); assay: as above
Chain of plasminogen (P00747 20-810 limits assumed): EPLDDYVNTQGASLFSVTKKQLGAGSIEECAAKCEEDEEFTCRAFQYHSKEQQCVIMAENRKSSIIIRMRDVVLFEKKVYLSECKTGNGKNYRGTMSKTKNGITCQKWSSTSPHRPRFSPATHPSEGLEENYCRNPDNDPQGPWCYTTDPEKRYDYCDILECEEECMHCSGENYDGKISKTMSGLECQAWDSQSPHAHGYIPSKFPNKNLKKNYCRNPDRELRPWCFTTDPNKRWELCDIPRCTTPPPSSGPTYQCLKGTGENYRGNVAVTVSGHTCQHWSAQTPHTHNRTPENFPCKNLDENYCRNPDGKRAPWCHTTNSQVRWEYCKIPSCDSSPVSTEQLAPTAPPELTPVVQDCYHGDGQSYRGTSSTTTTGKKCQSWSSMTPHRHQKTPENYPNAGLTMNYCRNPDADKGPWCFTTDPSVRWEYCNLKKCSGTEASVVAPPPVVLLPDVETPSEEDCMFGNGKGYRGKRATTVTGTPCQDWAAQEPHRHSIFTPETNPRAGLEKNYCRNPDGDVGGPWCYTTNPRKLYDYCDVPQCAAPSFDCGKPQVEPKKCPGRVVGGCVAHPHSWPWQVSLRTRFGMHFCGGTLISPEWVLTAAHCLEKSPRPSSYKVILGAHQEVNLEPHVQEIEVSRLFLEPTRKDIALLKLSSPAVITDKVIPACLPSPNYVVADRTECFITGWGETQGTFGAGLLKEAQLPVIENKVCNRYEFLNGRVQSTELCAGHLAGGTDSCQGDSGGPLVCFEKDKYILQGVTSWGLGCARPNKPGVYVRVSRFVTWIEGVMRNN
Method: as §1, §2

factor IX = target: T4, factor IX (UniProt P00740 47-461); assay: as above
T4 construct: also called fIX
Method: as §1, §2

factor VIIa = target: T5, factor VIIa (UniProt P08709 61-466); assay: as above
T5 construct: In the amidolytic and reconstituted assays it was used with tissue factor ('FT-FVIIa', 'tissue factor complex/factor VIIa'); In SPR it is printed only as 'fVIIa'; also called fVIIa; FVIIa
T5 sequence (looked up): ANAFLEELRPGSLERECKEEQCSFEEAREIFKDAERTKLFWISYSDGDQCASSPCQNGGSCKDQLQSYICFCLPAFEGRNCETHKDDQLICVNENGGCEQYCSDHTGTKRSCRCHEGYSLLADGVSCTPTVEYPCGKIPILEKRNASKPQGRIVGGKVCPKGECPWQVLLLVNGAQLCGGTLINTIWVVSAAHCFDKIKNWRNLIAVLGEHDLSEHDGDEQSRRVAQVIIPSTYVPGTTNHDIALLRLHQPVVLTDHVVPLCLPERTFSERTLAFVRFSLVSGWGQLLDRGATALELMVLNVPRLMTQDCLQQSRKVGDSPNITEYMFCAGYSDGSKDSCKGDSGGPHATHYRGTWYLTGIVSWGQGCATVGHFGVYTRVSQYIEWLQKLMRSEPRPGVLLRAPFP
Method: as §1, §2

t-PA = t-PA (UniProt P00750 36-562); assay: as above
Chain of t-PA (P00750 36-562 limits assumed): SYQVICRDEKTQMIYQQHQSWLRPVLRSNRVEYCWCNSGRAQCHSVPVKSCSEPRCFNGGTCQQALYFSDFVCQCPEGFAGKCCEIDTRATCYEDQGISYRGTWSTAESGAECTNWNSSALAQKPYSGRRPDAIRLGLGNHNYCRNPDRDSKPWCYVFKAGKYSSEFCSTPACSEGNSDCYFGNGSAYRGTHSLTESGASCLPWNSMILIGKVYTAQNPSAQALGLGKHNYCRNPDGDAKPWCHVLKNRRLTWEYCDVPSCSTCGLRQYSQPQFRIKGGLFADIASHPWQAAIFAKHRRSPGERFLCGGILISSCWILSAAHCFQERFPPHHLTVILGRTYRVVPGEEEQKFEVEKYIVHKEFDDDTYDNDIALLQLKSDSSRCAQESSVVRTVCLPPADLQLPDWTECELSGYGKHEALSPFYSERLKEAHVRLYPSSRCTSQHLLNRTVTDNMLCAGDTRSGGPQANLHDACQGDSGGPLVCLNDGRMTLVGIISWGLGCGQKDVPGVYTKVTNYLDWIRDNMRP
Method: as §1, §2

factor XIIa = target: T6, factor XIIa (UniProt P00748 20-615, limits assumed); assay: cell-based or functional assay
T6 sequence (looked up): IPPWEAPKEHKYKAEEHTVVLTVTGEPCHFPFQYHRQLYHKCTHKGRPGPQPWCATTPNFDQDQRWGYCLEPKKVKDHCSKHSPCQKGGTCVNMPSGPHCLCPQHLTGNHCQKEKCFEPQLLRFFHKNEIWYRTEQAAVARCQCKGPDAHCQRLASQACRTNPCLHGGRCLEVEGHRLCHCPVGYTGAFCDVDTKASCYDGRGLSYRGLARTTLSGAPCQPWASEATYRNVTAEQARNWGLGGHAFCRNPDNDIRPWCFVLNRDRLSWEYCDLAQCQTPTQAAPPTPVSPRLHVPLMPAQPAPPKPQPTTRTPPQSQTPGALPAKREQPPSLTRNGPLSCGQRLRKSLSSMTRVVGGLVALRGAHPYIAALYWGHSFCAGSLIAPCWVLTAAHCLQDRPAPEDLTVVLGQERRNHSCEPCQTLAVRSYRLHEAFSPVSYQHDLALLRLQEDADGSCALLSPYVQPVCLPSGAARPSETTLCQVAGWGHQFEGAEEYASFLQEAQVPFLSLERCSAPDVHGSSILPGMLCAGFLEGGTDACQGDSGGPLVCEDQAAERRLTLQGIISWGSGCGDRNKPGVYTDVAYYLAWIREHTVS

factor XIa = factor XIa (UniProt P03951 19-625); assay: cell-based or functional assay

Chain of plasma kallikrein (P03952 20-638 limits assumed): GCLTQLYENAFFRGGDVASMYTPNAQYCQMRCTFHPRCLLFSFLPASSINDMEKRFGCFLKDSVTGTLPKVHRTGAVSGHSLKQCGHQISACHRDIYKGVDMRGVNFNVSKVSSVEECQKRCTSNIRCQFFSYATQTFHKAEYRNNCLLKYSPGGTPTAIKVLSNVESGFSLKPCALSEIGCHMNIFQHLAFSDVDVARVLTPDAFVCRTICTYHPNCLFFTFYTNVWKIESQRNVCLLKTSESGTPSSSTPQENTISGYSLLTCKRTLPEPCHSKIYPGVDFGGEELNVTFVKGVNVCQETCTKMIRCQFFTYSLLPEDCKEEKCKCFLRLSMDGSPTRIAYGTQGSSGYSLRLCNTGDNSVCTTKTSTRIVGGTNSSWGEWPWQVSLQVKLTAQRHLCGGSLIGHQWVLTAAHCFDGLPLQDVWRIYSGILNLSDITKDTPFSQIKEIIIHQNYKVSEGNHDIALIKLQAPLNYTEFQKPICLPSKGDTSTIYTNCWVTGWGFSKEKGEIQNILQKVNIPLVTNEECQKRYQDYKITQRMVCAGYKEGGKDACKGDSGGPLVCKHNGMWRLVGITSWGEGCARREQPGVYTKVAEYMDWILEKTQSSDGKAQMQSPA

B1: Ir-CPI (Ixodes ricinus Contact Phase Inhibitor), recombinant (other)
chain: ANHKGRGRPAKCKLPPDDGPCRARIPSYYFDRKTKTCKEFMYGGCEGNENNFENITTCQEECRAKKV
notes: Kunitz-type protein; Made in E. coli as a GST fusion (pGEX-6P-1), released with PreScission protease and gel filtered; In the SPR assay it was amine-coupled to a CM5 chip; also called ID; NO; 7 without its peptide signal
In the case of B1, the Kd (plasma kallikrein) is reported as 200 nM, the binding result (factor X) is reported as “no binding (tested: 100 nM)” and the binding result [1] is reported as “no binding (tested: 100 nM)”. B1: no binding (tested: 100 nM) (thrombin); no binding (tested: 100 nM) (plasminogen); no binding (tested: 100 nM) (factor IX). The binding result (factor VIIa) was “no binding (tested: 100 nM)”, the binding result (t-PA) was “no binding (tested: 100 nM)” and the “EC50 (µg/mL) of inhibition of FXII coagulation activity, aPTT-based assay in human plasma with FXII deficient plasma” value (factor XIIa) was 1.38 µg/mL. The “EC50 (µg/mL) of inhibition of FXI coagulation activity, aPTT-based assay in human plasma with FXI deficient plasma” value (factor XIa) was 1.41 µg/mL.
